For the assay, the target named is T1, recombinant trimeric gp140 from HIV-1 92UG037 (clade A) (HIV-1 92UG037 (clade A), UniProt Q5VFI3, strain).
T1 construct: source: provided by S. Jeffs (Imperial College London)
Put plainly: ELISA. Conditions: both partners purified.

B1: 3E3 with the three germ line CDR2 residues re-inserted (VHH)
VHH: EVQLVESGGGLVQPGGSLRLSCAASQFTLESYAIGWFRQAPGKDSEGVACISSSDGSTYYADSVKGRFTISRDNAKNTVYLQMESLKPEDTAVYHCATSGAGSYCTLRAFGSWGQGTQVTVSS
In the case of B1, the binding result is reported as “no binding”.
